{
  "source": "paper PMC6152951",
  "molecular_target": "Strep-Flag-FAS I, recombinant 4'-phosphopantetheinylated M. tuberculosis fatty acid synthase I (M. tuberculosis)",
  "experiment": "SEC; […] (100 mM potassium phosphate pH 7.2, 150 mM KCl, 1 mM TCEP, 1 mM EDTA); […]",
  "data": [
    {"substance": "Strep-Flag-FAS I, recombinant 4'-phosphopantetheinylated M. tuberculosis fatty acid synthase I (enzyme)", "values": [
      {"measurement": "stoichiometry N", "value": 6}
    ]}
  ]
}
